B1: TRIM43 (parent)
chain: RAQMIRNEYRKLHPVLHKEEKQHL

Variants of: B1
Experiment: protein stability index of a GFP-peptide fusion (GPS, HEK-293T) (PSI 1-6); higher = more stable
Details: c terminus: a fixed tail appended
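Further: lentivirally expressed fusions sorted by FACS into six bins by GFP to DsRed ratio, PSI derived from sequencing read proportions per bin multiplied by bin number.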

Protein stability index of substitutions, site by site:
I5: N 4.04 | M 3.39 | K 3.21 | P 3.83 | D 4.2 | Y 2.92 | C 2.02 | H 3.56 | E 4.06 | Q 3.89 | L 3.92 | A 4.03 | V 3.15 | G 3.79 | S 3.67 | W 2.87
H13: D 3.75 | L 3.28 | G 3.2 | K 3.55 | N 3.35 | V 3.11 | T 3.1 | E 4.06 | A 3.46 | R 2.69 | Q 3.56 | M 2.94 | W 2.61 | F 2.82 | Y 2.83 | S 3.4 | I 2.92 | P 3.19 | C 3
Q3: V 2.63 | Y 2.54 | K 3.7 | N 3.19 | L 2.41 | H 3.13 | W 2.79 | E 3.48 | S 3.22 | P 3.39 | I 2.78 | F 2.33 | D 3.64 | T 3.27 | C 2.68 | A 2.67 | G 3.04 | M 2.82 | R 2.81
P14: G 3.11 | R 3.23 | E 3.28 | C 2.42 | K 2.7 | D 3.33 | I 2.44 | L 3.51 | V 2.59 | Q 2.51 | F 2.95 | N 2.64 | S 2.04 | T 2.77 | Y 2.27 | A 2.53 | H 2.28 | W 2.51 | M 2.5
M4: G 3.66 | I 2.6 | S 3.07 | C 3.23 | Y 2.74 | R 3.11 | E 3.86 | W 2.44 | F 2.61 | T 3.69 | V 3.39 | N 3.45 | P 3.73 | A 3.49 | D 3.53 | L 3.2 | H 3.46 | Q 2.8 | K 3.2
E8: Q 2.75 | L 1.75 | P 2.72 | G 2.84 | V 2.33 | W 1.33 | S 2.91 | H 2.78 | N 3 | I 2.39 | T 2.56 | A 2.16 | F 2.91 | C 2.59 | R 2.89 | K 2.92 | D 3.21 | M 2.2 | Y 2.51
K11: M 3.35 | H 3.94 | Y 3.07 | F 3.24 | S 2.96 | A 3.14 | T 3.42 | W 3.14 | E 4.15 | D 4.29 | Q 3.51 | P 4.16 | V 3.4 | L 3.49 | N 3.68 | I 2.94 | G 3.76 | R 3.4 | C 2.79
N7: D 3.35 | C 3 | T 3.3 | F 2.44 | H 3.28 | I 2.57 | L 3.49 | R 3.15 | S 2.83 | A 2.39 | E 2.32 | K 3.44 | M 2.98 | G 3.08 | P 4.17 | Y 2.74 | Q 3.33 | V 2.64 | W 1.96
R1: L 2.33 | A 3.44 | P 3.38 | W 1.92 | Q 3.04 | G 3.55 | I 2.01 | K 2.93 | T 2.85 | S 3.78 | C 2.17 | Y 1.77 | F 1.92 | V 3.99 | H 3.47 | D 3.89 | N 3.44 | M 2.47

Source: the supplement of paper PMC10567573
